# Laboratory results reported in US8034784B2, “Method of suppressing or reducing IL-TIF-induced inflammation, or treating associated conditions thereof, using Zcytor16” (ZymoGenetics, Inc., priority 1999, dated 2011).
# T1: IL-TIF (Homo sapiens, UniProt Q9GZX6)
# T1 sequence (Q9GZX6 34-179): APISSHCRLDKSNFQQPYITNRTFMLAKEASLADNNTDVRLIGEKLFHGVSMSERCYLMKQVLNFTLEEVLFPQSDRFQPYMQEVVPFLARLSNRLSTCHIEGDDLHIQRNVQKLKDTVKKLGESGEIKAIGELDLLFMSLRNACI
# Columns and labels:
# IL-TIF [1] = biological target: T1, IL-TIF; experiment: Inhibition of IL-TIF activation of luciferase reporter in MES 13 cells by zcytor16-Fc4; type: cell-based; settings: even at the highest dose of IL-TIF used
# Procedure: MES 13 cells (ATCC No. CRL-1927) were plated at 10,000 cells/well in 96-well tissue culture clusters (Costar) in DMEM growth medium (Life Technologies) supplemented with pyruvate and 10% serum (HyClone). Next day, the medium was switched to serum free DMEM medium by substituting 0.1% BSA (Fraction V; Sigma) for serum. This medium also contained the adenoviral construct KZ136 (below) that encodes a luciferase reporter mini-gene driven by SRE and STAT elements, at a 1000:1 multiplicity of infection (m.o.i.), i.e. 1000 adenoviral particles per cell. After allowing 24 h for the incorporation of the adenoviral construct in the cells, the media were changed and replaced with serum-free media. Human recombinant IL-TIF with or without a recombinant zcytor16-Fc4 fusion was added at the indicated final concentration in the well (as described in Table 11, below). Dilutions of both the IL-TIF and zcytor16-Fc4 were performed in serum-free medium. 0.1% BSA was added for a basal assay control. 4 h later, cells were lysed and luciferase activity, denoting activation of the reporter gene, was determined in the lysate using an Luciferase Assay System assay kit (Promega) and a Labsystems Luminoskan luminometer (Labsystems, Helsinki, Finland). Activity was expressed as luciferase units (LU) in the lysate.
# The construction of the adenoviral KZ136 vector was as follows. […]
# IL-TIF [2] = biological target: T1, IL-TIF; experiment: COS cell secretion trap binding assay; set-up: expressed in transfected cells; host or cells: COS cells, pZP7 expression vector; settings: 1-3 μg/ml zcytor16sR-Fc4, COS cells transfected with human IL-TIF cDNA
# Procedure: COS cell transfections were performed as follows: A mixture of 0.5 μg DNA and 5 μl lipofectamine (Gibco BRL) in 92 ul serum free DMEM media (55 mg sodium pyruvate, 146 mg L-glutamine, 5 mg transferrin, 2.5 mg insulin, 1 μg selenium and 5 mg fetuin in 500 ml DMEM) was incubated at room temperature for 30 minutes and then 400 μl serum free DMEM media added. A 500 μl mixture was added onto COS cells plated on 12-well tissue culture plate at 1.5×10^5 COS cells/well and previously incubated for 5 hours at 37° C. An additional 500 μl 20% FBS DMEM media (100 ml FBS, 55 mg sodium pyruvate and 146 mg L-glutamine in 500 ml DMEM) was added and the plates were incubated overnight.
# The secretion trap was performed as follows: Media was rinsed off cells with PBS and fixed for 15 minutes with 1.8% Formaldehyde in PBS. Cells were then washed with TNT (0.1M Tris-HCl, 0.15M NaCl, and 0.05% Tween-20 in H2O). Cells were permeated with 0.1% Triton-X in PBS for 15 minutes and washed again with TNT. […]
# IL-TIF [3] = biological target: T1, IL-TIF; experiment: Antagonism of IL-TIF-induced proliferation of BaF3/CRF2-4/zcytor11 cells (Alamar Blue); type: cell-based; set-up: made in house; host or cells: BHK 570 cells, pHZ200-CEE vector, purified from conditioned media; settings: zcytor16 at 10 μg/ml; IL-TIF at all concentrations (0.06-50 ng/ml)
# Excerpt: Purified IL-TIF-CEE (Example 19) was used to test for the presence of proliferation activity as described below. Purified zcytor16-Fc4 (Example 11) was used to antagonize the proliferative response of the IL-TIF in this assay as described below.
# BaF3/CRF2-4/zcytor11 cells were spun down and washed in the complete media, described in Example 7A above, but without mIL-3 (hereinafter referred to as “mIL-3 free media”). The cells were spun and washed 3 times to ensure the removal of the mIL-3. Cells were then counted in a hemacytometer. Cells were plated in a 96-well format at 5000 cells per well in a volume of 100 μl per well using the mIL-3 free media.
# Proliferation of the BaF3/CRF2-4/zcytor11 cells was assessed using IL-TIF-CEE protein diluted with mIL-3 free media to 50, 10, 2, 1, 0.5, 0.25, 0.13, 0.06 ng/ml concentrations. 100 μl of the diluted protein was added to the BaF3/CRF2-4/zcytor11 cells. […] Alamar Blue gives a fluourometric readout based on number of live cells, and is thus a direct measurement of cell proliferation in comparison to a negative control. […] Plates were read on the Finax™ plate reader (Molecular Devices Sunnyvale, Calif.) using the SoftMax™ Pro program, at wavelengths 544 (Excitation) and 590 (Emmission). […] The response, as measured, was approximately 15-fold over background at the high end of 50 ng/ml down to a 2-fold induction at the low end of 0.06 ng/ml. […]
# [4] = test system: BaF3/CRF2-4/zcytor11 cells; experiment: Alamar Blue proliferation assay, BaF3/CRF2-4/zcytor11 cells; type: cell-based, murine; settings: 3 days, then Alamar Blue
# Procedure: BaF3, an interleukin-3 (IL-3) dependent pre-lymphoid cell line derived from murine bone marrow (Palacios and Steinmetz, Cell 41: 727-734, 1985; Mathey-Prevot et al., Mol. Cell. Biol. 6: 4133-4135, 1986), was maintained in complete media (RPMI medium (JRH Bioscience Inc., Lenexa, Kans.) supplemented with 10% heat-inactivated fetal calf serum, 2 ng/ml murine IL-3 (mIL-3) (R & D, Minneapolis, Minn.), 2 mM L-glutaMax-1™ (Gibco BRL), 1 mM Sodium Pyruvate (Gibco BRL), and PSN antibiotics (GIBCO BRL)). Prior to electroporation, CRF2-4/pZP7P was prepared and purified using a Qiagen Maxi Prep kit (Qiagen) as per manufacturer's instructions. […]
# BaF3/CRF2-4/zcytor11 cells were spun down and washed in the complete media, described in Example 7A above, but without mIL-3 (hereinafter referred to as “mIL-3 free media”). […] Cells were then counted in a hemacytometer. […]
# Proliferation of the BaF3/CRF2-4/zcytor11 cells was assessed using IL-TIF-CEE protein diluted with mIL-3 free media to 50, 10, 2, 1, 0.5, 0.25, 0.13, 0.06 ng/ml concentrations. […] Alamar Blue gives a fluourometric readout based on number of live cells, and is thus a direct measurement of cell proliferation in comparison to a negative control. […] Plates were read on the Finax™ plate reader (Molecular Devices Sunnyvale, Calif.) using the SoftMax™ Pro program, at wavelengths 544 (Excitation) and 590 (Emmission). […]
binding of zcytor16sR/Fc4 to COS cells transfected with human IL-TIF (IL-TIF [2]),proliferative response to IL-TIF in the presence of zcytor16 (IL-TIF [3]),Molecule,antagonism of the response of MES 13 cells to IL-TIF (IL-TIF [1]),proliferative response (induction) ([4]; IL-TIF-CEE 0.06 ng/ml),proliferative response over background ([4]; IL-TIF-CEE 50 ng/ml)
positive binding,brought down to background,zcytor16-Fc4: soluble zcytor16 polypeptide (residue 22 to 231 of SEQ ID NO:2; SEQ ID NO:13) fused to a C-terminal Fc4 tag (protein) TQSTHESLKPQRVQFQSRNFHNILQWQPGRALTGNSSVYFVQYKIYGQRQWKNKEDCWGTQELSCDLTSETSDIQEPYYGRVRAASAGSYSEWSMTPRFTPWWETKIDPPVMNITQVNGSLLVILHAPNLPYRYQKEKNVSIEDYYELLYRVFIINNSLEKEQKVYEGAHRAVEIEALTPHSSYCVVAEIYQPMLDRRSQRSEERCVEIPEPRSSDKTHTCPPCPAPEAEGAPSVFLFPPKPKDTLMISRTPEVTCVVVDVSHEDPEVKFNWYVDGVEVHNAKTKPREEQYNSTYRVVSVLTVLHQDWLNGKEYKCKVSNKALPSSIEKTISKAKGQPREPQVYTLPPSRDELTKNQVSLTCLVKGFYPSDIAVEWESNGQPENNYKTTPPVLDSDGSFFLYSKLTVDKSRWQQGNVFSCSVMHEALHNHYTQKSLSLSPGK,effectively blocks the response to IL-TIF,–,–
–,–,"IL-TIF-CEE: human IL-TIF polypeptide (SEQ ID NO:15) containing C-terminal GluGlu (EE) tag, purified from BHK cells; ligand of zcytor16 (protein, listed as Homo sapiens, C-terminal GluGlu tag, ligand of zcytor16) MAALQKSVSSFLMGTLATSCLLLLALLVQGGAAAPISSHCRLDKSNFQQPYITNRTFMLAKEASLADNNTDVRLIGEKLFHGVSMSERCYLMKQVLNFTLEEVLFPQSDRFQPYMQEVVPFLARLSNRLSTCHIEGDDLHIQRNVQKLKDTVKKLGESGEIKAIGELDLLFMSLRNACI",–,2 fold induction,approximately 15 fold over background
